From US20210155683A1
pEC50: −log10 of the molar value.

Assays:
[1] = molecular target: human β-NGF (human) (UniProt P01138); assay: ELISA, plate coated with 0.5 µg/mL human β-NGF; antibody 1 µg/mL diluted 1:729; duplicate well 1
[2] = molecular target: human β-NGF (human) (UniProt P01138); assay: ELISA, plate coated with 0.5 µg/mL human β-NGF; antibody 1 µg/mL diluted 1:3; duplicate well 1
[3] = molecular target: human β-NGF (human) (UniProt P01138); assay: ELISA, plate coated with 0.5 µg/mL human β-NGF; antibody 1 µg/mL diluted 1:81; duplicate well 1
[4] = molecular target: NGF (as used in the TF-1 cell proliferation assays); assay: cell-based or functional assay
[5] = molecular target: human β-NGF (human) (UniProt P01138); assay: ELISA, plate coated with 0.5 µg/mL human β-NGF; antibody 1 µg/mL diluted 1:9; duplicate well 1
[6] = molecular target: human β-NGF (human) (UniProt P01138); assay: ELISA, plate coated with 0.5 µg/mL human β-NGF; antibody 1 µg/mL diluted 1:27; duplicate well 2
[7] = molecular target: human β-NGF (human) (UniProt P01138); assay: ELISA, plate coated with 0.5 µg/mL human β-NGF; antibody 1 µg/mL diluted 1:9; duplicate well 2
[8] = molecular target: human β-NGF (human) (UniProt P01138); assay: ELISA, plate coated with 0.5 µg/mL human β-NGF; antibody 1 µg/mL diluted 1:729; duplicate well 2
[9] = molecular target: human β-NGF (human) (UniProt P01138); assay: ELISA, plate coated with 0.5 µg/mL human β-NGF; antibody 1 µg/mL diluted 1:27; duplicate well 1
[10] = molecular target: human β-NGF (human) (UniProt P01138); assay: ELISA, plate coated with human β-NGF, anti-human IgG-HRP detection, 4-parameter fit
[11] = molecular target: human β-NGF (human) (UniProt P01138); assay: ELISA, plate coated with 0.5 µg/mL human β-NGF; antibody at 1 µg/mL; duplicate well 1
[12] = molecular target: human β-NGF (human) (UniProt P01138); assay: ELISA, plate coated with 0.5 µg/mL human β-NGF; antibody at 1 µg/mL; duplicate well 2
[13] = molecular target: human β-NGF (human) (UniProt P01138); assay: ELISA, plate coated with 0.5 µg/mL human β-NGF; antibody 1 µg/mL diluted 1:243; duplicate well 2
[14] = molecular target: human β-NGF (human) (UniProt P01138); assay: ELISA, plate coated with 0.5 µg/mL human β-NGF; antibody 1 µg/mL diluted 1:3; duplicate well 2
[15] = molecular target: human β-NGF (human) (UniProt P01138); assay: ELISA, plate coated with 0.5 µg/mL human β-NGF; antibody 1 µg/mL diluted 1:81; duplicate well 2
[16] = molecular target: human β-NGF (human) (UniProt P01138); assay: ELISA, plate coated with 0.5 µg/mL human β-NGF; antibody 1 µg/mL diluted 1:243; duplicate well 1

Chain of human β-NGF (human) (P01138 122-241 limits assumed): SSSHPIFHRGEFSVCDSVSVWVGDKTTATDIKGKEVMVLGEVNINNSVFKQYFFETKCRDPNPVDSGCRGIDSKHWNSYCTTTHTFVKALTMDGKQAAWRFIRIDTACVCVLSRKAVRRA

Pfizer antibody Tanezumab
OD (450 nm) [1]: 0.227 OD (450 nm)
OD (450 nm) [2]: 2.66 OD (450 nm)
OD (450 nm) [3]: 1.18 OD (450 nm)
neutralizing EC50 to NGF (inhibition of NGF-induced TF-1 cell proliferation, CCK-8) [4]: 0.21 nM
OD (450 nm) [5]: 2.48 OD (450 nm)
OD (450 nm) [6]: 1.97 OD (450 nm)
OD (450 nm) [7]: 2.27 OD (450 nm)
OD (450 nm) [8]: 0.245 OD (450 nm)
OD (450 nm) [9]: 2.17 OD (450 nm)
pEC50 [10]: 9.99
OD (450 nm) [11]: 2.77 OD (450 nm)
OD (450 nm) [12]: 2.71 OD (450 nm)
OD (450 nm) [13]: 0.609 OD (450 nm)
OD (450 nm) [14]: 2.55 OD (450 nm)
OD (450 nm) [15]: 1.27 OD (450 nm)
OD (450 nm) [16]: 0.56 OD (450 nm)
